Data on 55 sequences can be found in the supplement of paper PMC12636428.

The subject of the data set is Saccharomyces cerevisiae. Nature of the data set: transcriptional activation domain activity (GFP:mCherry ratio, weighted mean of sorted bins, harmonized to initial dataset scale) (arbitrary fluorescence ratio units); higher = stronger transcriptional activation. As to conditions: beta-estradiol 1 µM; induction time 4 h. In a few lines: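 Yeast diploids with a GFP reporter received barcoded protein tiles, fused to an estradiol-inducible synthetic transcription factor, at the URA3 locus. Cultures were diluted 1:5 into SC holding 1 uM beta-estradiol, incubated 4 hours at 30 °C, sorted into 8 bins on GFP:mCherry ratio, and sequenced for barcodes, with tiles under 50 reads discarded. Activation activity values come from the read-weighted mean of bin median fluorescence, averaged across barcodes and linearly placed on the initial dataset scale.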

For “FGFVFFVASLENGHYKFQFTNFAWTHMALYLIVCQAHFVMNNIFEGMIWFFLP”, the “transcriptional activation domain activity” value came out at 66100.

As for “FGHVINEFVLSTFLTDQCHKIPQDTVNAYFEDCSTISTSQILMLLYILTFNDY”, the “transcriptional activation domain activity” value turned out to be 60700.

For the sequence “FGLFGPLDFLDFLDLWTFWTFWTLNFLDFWTFGLFGLLALDLDFLDFLDFLDL”, the “transcriptional activation domain activity” value amounted to 57800.

In the case of “FGLLIAGWVCFFFFLSPLFPLFPLFPLFFFFFLLVGSPVSVYLWLGFLVWFGL”, the “transcriptional activation domain activity” value came out at 32800.

Regarding “FGNPPLIWFFWALFSPLFLFFFFFPIFFLSFPFFSFSFLFSFFVLLGVLKAYL”, the “transcriptional activation domain activity” value was determined as 22100.

For “FGRSKAKRRAGRGFGTSGYGAGSSASNGGKDAKGGDTKGAENRYHDNKDEDND”, the “transcriptional activation domain activity” value stood at 38200.

Turning to “FGSDYTRFYMYMPHPSILPYILGDLFWTFWRGFIDMEMTSKTYLYLFFLLLPP”, the “transcriptional activation domain activity” value amounted to 72300.

Turning to “FGSWGRGLCPLVFREAGWLELWGCVCVGGTLVWCLPYGILPMSYWRIWGLLRW”, the “transcriptional activation domain activity” value is 74600.

As to “FGVGMVPLGCQWACHLVALMVLFDVGWLCISRFILLDSMLLFFTFLTVFCMTK”, the “transcriptional activation domain activity” value turned out to be 57900.

For “FGVKKVHHEIRSHVRLYYQSIGTSLLKGYERMDMVDIFKALRQCFLAIVLLFR”, the “transcriptional activation domain activity” value is 53600.

As for “FGWHIYKKIGADLAMRGKRSLSPLISSSPRLADRYKMYQIFMMLLKLDFFFFL”, the “transcriptional activation domain activity” value stood at 77900.

With “FGYSPSAVWVFLFCFGQGLISFAFLPFFFYLVSICIIILGGLLFCIWVVYIYQ”, the “transcriptional activation domain activity” value is 28400.

In the case of “FHAWVSHIVQLNLFGLLSQTLMLIMFKLDVGTYFFLNDVILCKVYVFSLFVTL”, the “transcriptional activation domain activity” value is 65400.

Take “FHFHLHSSISFPFPSLSLPFPFFPTSSSSSSPFLLHLFPFPSLFFPLLLLLLF”: the “transcriptional activation domain activity” value came out at 56400.

As to “FHIGIYARVLMCLLLDKKARPLPEDMKLWVDLLRWLKGGSPGGALSFFTYMEL”, the “transcriptional activation domain activity” value came out at 30900.

Take “FHLPCLSLRWWRWCWGHYRLILVVLCLVLLPCLVFLDTIYVYKAFFQIKLENT”: the “transcriptional activation domain activity” value amounted to 34500.

As for “FHPIPFLFSSSPLFLIPIFSFHIFHFLLLPFFPSLLLSSFSIPFIPLLSIHSS”, the “transcriptional activation domain activity” value was 57600.

As to “FHRGGSNGSNSNNNNNAGDLQHHQHAGINKTTANVSEKYHWNRIKGTVTDVIE”, the “transcriptional activation domain activity” value was determined as 28300.

Turning to “FHSLLSPFHASFLSLFYPHSLSCFYLFPFLHAFVFLFHFRCGFLGVSCILLSA”, the “transcriptional activation domain activity” value is 73200.

In the case of “FHYGGRADVTSVFTVEARTSLTVDDFRKRILLAWANLRLHHVLLMSTVLRDSA”, the “transcriptional activation domain activity” value was 65000.

With “FICLLLSTTLRRLRWCLIRYIRNNYMEVCVCLVTIGVVAFSRLSWTLWVGAYV”, the “transcriptional activation domain activity” value amounted to 50000.

Turning to “FIDAAGKGGELRWNPHNKRYHLVGAEEGGKEDALSAPNKPTKPNPVLVCIYGQ”, the “transcriptional activation domain activity” value amounted to 69000.

For “FIHLMNMTQVVVLCIHRFVYGLVPLFEITTCAFWPLLVSLWHLTYLLFYAIMF”, the “transcriptional activation domain activity” value was determined as 64100.

Consider “FILGLIFVFAFVWHERSMAACPLIPIKAMTAQATFVLVCTATGWASFSIWIYY”, for which the “transcriptional activation domain activity” value worked out at 60700.

For “FILGYYWGDARLFGLSVRFMSLFSWFRVVHRVLPRLLPMRFKGPGKYVVTYDA”, the “transcriptional activation domain activity” value is 58500.

As for “FILSGCTFRLLFCIFGIRVWLDHQLCGNLLVVELYRKIVRSIDAYHHGKGYPT”, the “transcriptional activation domain activity” value came to 61700.

Consider “FILYSLLLIPFPLNYILSYIFFFFFLILWGIYLAMRGFFKSWFSLWAWAGNGI”, for which the “transcriptional activation domain activity” value came out at 64600.

Consider “FIPLQAGIKQLIGRLSLPRHPLSNLNHLIPRHIVFTDCIWLILRQLSTLKHWA”, for which the “transcriptional activation domain activity” value is 57800.

As for “FIQLVHLWRLILNYGPTGPFNIRMPSHLTWVVIKQHIQQYFFRCLCLLNKDGA”, the “transcriptional activation domain activity” value is 49100.

With “FIRSQLGSVMPTIALSLMKDVLFRLEQLFLNRECHEWPVALAVLIIVLMTIES”, the “transcriptional activation domain activity” value was found to be 52800.

Take “FISKLCILGGSQICNHFWGGIEIILESFYFILTTLINFWDFINLPNAFLWGLF”: the “transcriptional activation domain activity” value worked out at 72800.

Regarding “FISVYVPNFFVAFCLEMSQFFYLYQFMVMWLYYYWNYYVIGVIDTAIILVSAI”, the “transcriptional activation domain activity” value was 47100.

With “FITSLMLFQAVPCFLVHVIMLFPFFRNFPHQFRYRDPFTMVLLSFSFIFLFTF”, the “transcriptional activation domain activity” value was 62700.

As for “FIVHTAELHLFRKQYVGQLYRSQKLLGLLARRPHIARLVTRFGMHAMSAPLFY”, the “transcriptional activation domain activity” value turned out to be 57100.

As for “FIVLYLSHRQLIIVNPCYLLGHHACSLLCLLILHNFHIWLSYVGTVLFCFCFS”, the “transcriptional activation domain activity” value amounted to 78400.

As to “FIVVLLTMEVIIHYLYMVAIFHVKPDWSQFTAAQLSMMGFLNLKHIWLKLLIP”, the “transcriptional activation domain activity” value was determined as 39000.

Consider “FKCCAVAFPIVCFATPYTALIQRPLVQQAAMFGIMIVKCFAVIFAFPCSIILL”, for which the “transcriptional activation domain activity” value is 81600.

For the sequence “FKDLLVEGFDNNRLIVAIPFVCKVLEQASKSRVFKPPNPWLMAILRLLVELYH”, the “transcriptional activation domain activity” value was 51200.

“FKDNPKVIETKDKVMHYNTQLRYHGLRDHQVNIRNTRRHAIALLIWRVVQMVF”: the “transcriptional activation domain activity” value is 39500.

As to “FKEGVSLTVLDELYRWQKYAYGCDEIIFNPIFTWWKKGPISLQLRNFVWSIAP”, the “transcriptional activation domain activity” value worked out at 57100.

On to “FKLNTVTNLNEIDFTNIFTKSPHPHSGSTHPRQVFDQLDDCSSILFSPLTTNT”, for which the “transcriptional activation domain activity” value is 67700.

Turning to “FKSMIFFLWFLDTLQLAFVIHALYYYLITSYGNIVALMKPTWSILLQIYVTSL”, the “transcriptional activation domain activity” value came out at 69400.

Take “FKSQLFCFYNLRLFVSCQPKHLNDLVDLLKKYHGSHVYQFVFTLSAFLERVAQ”: the “transcriptional activation domain activity” value came out at 48800.

For “FKVGIDGCLRLRGAGSTLCFHRVVRILTATIGTMVRVLFVCKELWRVTGEETS”, the “transcriptional activation domain activity” value worked out at 51700.

In the case of “FKVLMQVMPFVLHGLVDDKLRTLWRMLGELGAFLWMPLIKDKEVYLRKLAVII”, the “transcriptional activation domain activity” value turned out to be 48700.

For “FLAAVTCLLCVIGIFICLLFHANPYLRLIPLLIMIQSICFVLFSHFGLCLYRL”, the “transcriptional activation domain activity” value was determined as 39400.

With “FLARLESLHRALGLYLWFSYRYPNIIISQALAFHAKSMLEAKIDDLLQKMSFD”, the “transcriptional activation domain activity” value stood at 44300.

“FLAYVAKRIVWAIIRTIVYLRRDYLGYLSLGRGRSPSNVRGWLANKWYQFLLL”: the “transcriptional activation domain activity” value is 50100.

In the case of “FLCIFFLSLFFYTFSISYLYVWCLPPPPRRQTCLPTLTFISLPFVSALFLSFG”, the “transcriptional activation domain activity” value was found to be 59100.

For “FLCIFSPFSRMISCLVYRSLFCSSYITSINLIVSVSKVVRRFIIRIFPLLFTI”, the “transcriptional activation domain activity” value worked out at 51400.

On to “FLDCLKYILHNSHHLLVTVCDSFERTVRGLNKLKKMNVRQKDIYIGYYLLQYG”, for which the “transcriptional activation domain activity” value was found to be 46200.

Regarding “FLDFLDLWTFGLFGPLDFLDFLDFLDFLDFLDFLDFLDLWTFGLFGPLDFLDF”, the “transcriptional activation domain activity” value was determined as 46900.

Turning to “FLDLVLPHVGRWSDFVAYIPGVTVVEVNYLLRRLGSPKCGPALLLEKLHLFFF”, the “transcriptional activation domain activity” value came to 54400.

Turning to “FLDRGRVGFFFFFLLVSFYSSSWKLLFLLYTHFFVFSGLLALYYFLFWSVLFI”, the “transcriptional activation domain activity” value stood at 68800.

For the sequence “FLDVSTSYDIGNPPSISDDLLDLSIFTAQNFQSPSIDFRRVKLMHDFLDVSRF”, the “transcriptional activation domain activity” value is 125000.
